Results taken from US20170342144A1 (Sanofi, published 2017).
Changes are numbered by the printed parent chain.

T1: human TGFβ3 (human, UniProt P10600 301-412)
T1 sequence: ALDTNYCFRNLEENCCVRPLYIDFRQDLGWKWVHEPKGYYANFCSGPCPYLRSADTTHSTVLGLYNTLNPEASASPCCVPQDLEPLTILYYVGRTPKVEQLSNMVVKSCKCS

T2: human TGFβ2 (human, UniProt P61812 303-414)
T2 construct: also called TGFβ2 homodimer
T2 sequence: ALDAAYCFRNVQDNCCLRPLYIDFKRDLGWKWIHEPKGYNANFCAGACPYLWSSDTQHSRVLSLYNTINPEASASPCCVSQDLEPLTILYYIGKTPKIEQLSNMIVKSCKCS

B1: P53I (antibody, V domains shown)
VH: QVQLVQSGAEVKKPGSSVKVSCKASGYTFSSNVISWVRQAPGQGLEWMGGVIIIVDIANYAQRFKGRVTITADESTSTTYMELSSLRSEDTAVYYCASTLGLVLDAMDYWGQGTLVTVSS
VL: ETVLTQSPGTLSLSPGERATLSCRASQSLGSSYLAWYQQKPGQAPRLLIYGASSRAPGIPDRFSGSGSGTDFTLTISRLEPEDFAVYYCQQYADSPITFGQGTRLEIK
notes: GC1008 IgG4 variant
B2: S30N (antibody, V domains shown)
VH: B1 VH with S30N, I53P
VL: B1 VL
notes: GC1008 IgG4 variant
B3: S31T (antibody, V domains shown)
VH: B1 VH with S31T, I53P
VL: B1 VL
notes: GC1008 IgG4 variant
B4: S30T (antibody, V domains shown)
VH: B1 VH with S30T, I53P
VL: B1 VL
notes: GC1008 IgG4 variant
B5: Y27K (antibody, V domains shown)
VH: B1 VH with Y27K, I53P
VL: B1 VL
notes: GC1008 IgG4 variant
B6: S30F (antibody, V domains shown)
VH: B1 VH with S30F, I53P
VL: B1 VL
notes: GC1008 IgG4 variant
B7: S31G (antibody, V domains shown)
VH: B1 VH with S31G, I53P
VL: B1 VL
notes: GC1008 IgG4 variant
B8: S31A (antibody, V domains shown)
VH: B1 VH with S31A, I53P
VL: B1 VL
notes: GC1008 IgG4 variant
B9: S31K (antibody, V domains shown)
VH: B1 VH with S31K, I53P
VL: B1 VL
notes: GC1008 IgG4 variant
B10: S31P (antibody, V domains shown)
VH: B1 VH with S31P, I53P
VL: B1 VL
notes: GC1008 IgG4 variant
B11: S30I (antibody, V domains shown)
VH: B1 VH with S30I, I53P
VL: B1 VL
notes: GC1008 IgG4 variant
B12: S30M (antibody, V domains shown)
VH: B1 VH with S30M, I53P
VL: B1 VL
notes: GC1008 IgG4 variant
B13: Y27A (antibody, V domains shown)
VH: B1 VH with Y27A, I53P
VL: B1 VL
notes: GC1008 IgG4 variant
B14: Y27F (antibody, V domains shown)
VH: B1 VH with Y27F, I53P
VL: B1 VL
notes: GC1008 IgG4 variant
B15: Y27G (antibody, V domains shown)
VH: B1 VH with Y27G, I53P
VL: B1 VL
notes: GC1008 IgG4 variant
B16: Y27D (antibody, V domains shown)
VH: B1 VH with Y27D, I53P
VL: B1 VL
notes: GC1008 IgG4 variant
B17: S31L (antibody, V domains shown)
VH: B1 VH with S31L, I53P
VL: B1 VL
notes: GC1008 IgG4 variant
B18: S30G (antibody, V domains shown)
VH: B1 VH with S30G, I53P
VL: B1 VL
notes: GC1008 IgG4 variant
B19: Y27E (antibody, V domains shown)
VH: B1 VH with Y27E, I53P
VL: B1 VL
notes: GC1008 IgG4 variant
B20: S31Q (antibody, V domains shown)
VH: B1 VH with S31Q, I53P
VL: B1 VL
notes: GC1008 IgG4 variant
B21: S30L (antibody, V domains shown)
VH: B1 VH with S30L, I53P
VL: B1 VL
notes: GC1008 IgG4 variant
B22: S30Q (antibody, V domains shown)
VH: B1 VH with S30Q, I53P
VL: B1 VL
notes: GC1008 IgG4 variant
B23: S31E (antibody, V domains shown)
VH: B1 VH with S31E, I53P
VL: B1 VL
notes: GC1008 IgG4 variant
B24: Y27I (antibody, V domains shown)
VH: B1 VH with Y27I, I53P
VL: B1 VL
notes: GC1008 IgG4 variant
B25: S30Y (antibody, V domains shown)
VH: B1 VH with S30Y, I53P
VL: B1 VL
notes: GC1008 IgG4 variant
B26: S30D (antibody, V domains shown)
VH: B1 VH with S30D, I53P
VL: B1 VL
notes: GC1008 IgG4 variant
B27: S30C (antibody, V domains shown)
VH: B1 VH with S30C, I53P
VL: B1 VL
notes: GC1008 IgG4 variant
B28: V55G (antibody, V domains shown)
VH: B1 VH with I53P, V55G
VL: B1 VL
notes: GC1008 IgG4 variant
B29: S30R (antibody, V domains shown)
VH: B1 VH with S30R, I53P
VL: B1 VL
notes: GC1008 IgG4 variant
B30: S30V (antibody, V domains shown)
VH: B1 VH with S30V, I53P
VL: B1 VL
notes: GC1008 IgG4 variant
B31: S31H (antibody, V domains shown)
VH: B1 VH with S31H, I53P
VL: B1 VL
notes: GC1008 IgG4 variant
B32: S31R (antibody, V domains shown)
VH: B1 VH with S31R, I53P
VL: B1 VL
notes: GC1008 IgG4 variant
B33: S30P (antibody, V domains shown)
VH: B1 VH with S30P, I53P
VL: B1 VL
notes: GC1008 IgG4 variant
B34: S31V (antibody, V domains shown)
VH: B1 VH with S31V, I53P
VL: B1 VL
notes: GC1008 IgG4 variant

molecular target: T3, human TGFβ1 (human, UniProt P01137 279-390); assay: Biacore off-rate vs wt GC1008, 50 nM
T3 construct: also called TGFβ1 homodimer
T3 sequence (P01137 279-390 limits assumed): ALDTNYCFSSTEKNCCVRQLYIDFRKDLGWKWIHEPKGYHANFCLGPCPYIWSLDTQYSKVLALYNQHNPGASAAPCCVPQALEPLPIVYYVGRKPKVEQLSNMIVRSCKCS

Row | kd var/kd wt | Binder
1 | 4.3 | B1
2 | 1.3 | B2
3 | 1.6 | B3
4 | 1.2 | B4
5 | 1.9 | B5
6 | 1 | B6
7 | 1.1 | B7
8 | 1.2 | B8
9 | 1.8 | B9
10 | 1.5 | B10
11 | 1.4 | B11
12 | 0.7 | B12
13 | 1.6 | B13
14 | 1.3 | B14
15 | 1.5 | B15
16 | 1.2 | B16
17 | 2 | B17

Row | kd var/kd wt | Binder
18 | 0.9 | B18
19 | 1.2 | B19
20 | 1.5 | B20
21 | 1 | B21
22 | 1.2 | B22
23 | 1.7 | B23
24 | 1.3 | B24
25 | 1 | B25
26 | 1.4 | B26
27 | 1.2 | B27
28 | 1.8 | B28
29 | 1.9 | B29
30 | 1.1 | B30
31 | 1.5 | B31
32 | 1.4 | B32
33 | 1.2 | B33
34 | 1.4 | B34

molecular target: T1, human TGFβ3; assay: Biacore off-rate vs wt GC1008, 50 nM

Row | kd var/kd wt | Binder
35 | 1.3 | B1
36 | 1.2 | B2
37 | 1.5 | B3
38 | 1.1 | B4
39 | 1.3 | B5
40 | 0.7 | B6
41 | 1.1 | B7
42 | 1.1 | B8
43 | 1.4 | B9
44 | 1.2 | B10
45 | 1.1 | B11
46 | 1 | B12
47 | 1.5 | B13
48 | 1.1 | B14
49 | 1.3 | B15
50 | 1.2 | B16
51 | 1.5 | B17

Row | kd var/kd wt | Binder
52 | 0.9 | B18
53 | 1.1 | B19
54 | 1 | B20
55 | 1 | B21
56 | 1.1 | B22
57 | 1.4 | B23
58 | 1.1 | B24
59 | 0.8 | B25
60 | 1.1 | B26
61 | 1 | B27
62 | 1.9 | B28
63 | 1.3 | B29
64 | 1.1 | B30
65 | 1.4 | B31
66 | 1.5 | B32
67 | 0.9 | B33
68 | 1.4 | B34

molecular target: T2, human TGFβ2; assay: Biacore off-rate vs wt GC1008, 50 nM

Row | kd var/kd wt | Binder
69 | 1.6 | B1
70 | 1.3 | B2
71 | 1.2 | B3
72 | 1.2 | B4
73 | 1.4 | B5
74 | 0.9 | B6
75 | 1.2 | B7
76 | 1.2 | B8
77 | 1.2 | B9
78 | 1.2 | B10
79 | 1.1 | B11
80 | 0.9 | B12
81 | 1.4 | B13
82 | 1.2 | B14
83 | 1.4 | B15
84 | 1.3 | B16
85 | 1.2 | B17

Row | kd var/kd wt | Binder
86 | 0.7 | B18
87 | 1.4 | B19
88 | 1 | B20
89 | 1 | B21
90 | 1.2 | B22
91 | 1.4 | B23
92 | 1.3 | B24
93 | 0.9 | B25
94 | 1.2 | B26
95 | 1.1 | B27
96 | 1.9 | B28
97 | 1.2 | B29
98 | 1.2 | B30
99 | 1.3 | B31
100 | 1.2 | B32
101 | 1 | B33
102 | 1 | B34
